From patent US20260028424A1 (GRANULAR THERAPEUTICS, published 2026)

T1: rhesus monkey CD203c His-tagged recombinant protein (rhesus monkey, UniProt F6TH66 31-874)
T1 construct: also called rhesus CD203c; not shown: His tag
T1 sequence: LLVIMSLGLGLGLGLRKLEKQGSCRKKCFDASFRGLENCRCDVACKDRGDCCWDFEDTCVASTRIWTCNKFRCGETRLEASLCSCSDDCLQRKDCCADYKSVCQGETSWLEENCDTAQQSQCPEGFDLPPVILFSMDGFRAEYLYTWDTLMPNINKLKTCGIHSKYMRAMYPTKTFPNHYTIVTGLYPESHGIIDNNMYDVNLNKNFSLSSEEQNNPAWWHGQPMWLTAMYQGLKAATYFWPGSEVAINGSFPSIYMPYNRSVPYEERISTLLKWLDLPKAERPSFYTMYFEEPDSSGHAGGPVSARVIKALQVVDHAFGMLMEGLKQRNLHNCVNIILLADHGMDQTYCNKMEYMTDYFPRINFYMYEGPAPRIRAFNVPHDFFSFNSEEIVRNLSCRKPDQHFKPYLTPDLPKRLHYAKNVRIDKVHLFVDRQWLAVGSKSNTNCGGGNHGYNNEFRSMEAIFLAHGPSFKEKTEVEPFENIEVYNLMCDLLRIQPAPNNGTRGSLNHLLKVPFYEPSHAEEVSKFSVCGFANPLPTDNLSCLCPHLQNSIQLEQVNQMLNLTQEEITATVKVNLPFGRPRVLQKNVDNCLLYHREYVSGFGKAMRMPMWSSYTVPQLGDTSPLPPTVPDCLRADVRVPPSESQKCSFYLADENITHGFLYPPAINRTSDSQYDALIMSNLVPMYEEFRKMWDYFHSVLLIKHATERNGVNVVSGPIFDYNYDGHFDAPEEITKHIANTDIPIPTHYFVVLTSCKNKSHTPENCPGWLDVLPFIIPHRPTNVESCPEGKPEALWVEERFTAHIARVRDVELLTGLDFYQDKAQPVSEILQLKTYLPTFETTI

T2: human CD203c His-tagged recombinant protein (human, UniProt O14638 49-875, limits assumed)
T2 construct: also called ENPP3; not shown: His tag
T2 sequence (looked up): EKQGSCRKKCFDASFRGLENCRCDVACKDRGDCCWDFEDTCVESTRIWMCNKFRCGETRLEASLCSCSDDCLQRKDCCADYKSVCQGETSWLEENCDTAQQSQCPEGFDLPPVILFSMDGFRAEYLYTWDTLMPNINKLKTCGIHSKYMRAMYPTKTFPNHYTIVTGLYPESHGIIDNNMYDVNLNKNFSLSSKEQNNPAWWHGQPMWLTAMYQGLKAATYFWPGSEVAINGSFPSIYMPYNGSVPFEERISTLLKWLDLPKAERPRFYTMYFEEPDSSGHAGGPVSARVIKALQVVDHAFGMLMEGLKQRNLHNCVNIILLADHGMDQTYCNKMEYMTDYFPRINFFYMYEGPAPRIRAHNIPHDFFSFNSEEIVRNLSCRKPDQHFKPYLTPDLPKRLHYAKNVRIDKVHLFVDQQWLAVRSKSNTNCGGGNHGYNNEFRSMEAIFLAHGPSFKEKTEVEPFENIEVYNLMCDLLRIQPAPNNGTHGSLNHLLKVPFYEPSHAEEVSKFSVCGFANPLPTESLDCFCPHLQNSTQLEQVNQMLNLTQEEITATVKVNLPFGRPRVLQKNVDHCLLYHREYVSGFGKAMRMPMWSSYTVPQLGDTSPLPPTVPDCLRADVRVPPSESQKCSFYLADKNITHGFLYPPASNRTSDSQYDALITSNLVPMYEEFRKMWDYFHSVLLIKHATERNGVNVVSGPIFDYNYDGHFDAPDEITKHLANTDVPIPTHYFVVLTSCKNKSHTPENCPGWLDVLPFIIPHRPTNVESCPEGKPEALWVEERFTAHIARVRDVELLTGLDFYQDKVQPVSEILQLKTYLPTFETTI


Key:
[1] = target: T1, rhesus monkey CD203c His-tagged …; experiment: direct binding ELISA on rhesus CD203c, absorbance (blank corrected)
[2] = target: T2, human CD203c His-tagged recombinant …; experiment: direct binding ELISA on human CD203c, absorbance (blank corrected)

Row | binding result [1] | EC50 (read off the curve) [2] | binding result [2] | Binder
1 | binds | ~0.04 µg/mL | – | 12 (antibody, V domains shown, also called variant 12; 12 VH domain) VH: EVQLVQSGAEVKKPGESLKISCKGSGYRFTSYWIGWVRQMPGKGLEWMGIIYPGDSDTRYSPSFQGQVTISADKSISTAYLQWSSLKASDTAMYYCARKDYYYGIMDVWGQGTTVTVSS VL: DIQMTQSPSSLSASVGDRVTITCRASQGIRTNLAWFQQKPGKAPKSLIYAASSLQSGVPSRFSGSGSGTDFTLTISSLQPEDFATYYCQQYNSYPRTFGGGTKVEIK
2 | binds | – | binds | 13 (antibody, V domains shown, also called variant 13; 13 VH domain) VH: EVQLVQSGAEVKKPGESLKISCKGSGYRFTSYWIGWVRQMPGKGLEWMGIIYPGDSDTRYSPSFQGQVTISADKSISTAYLQWSSLKASDTAMYYCARKDYYYGSMDVWGQGTTVTVSS VL: DIQMTQSPSSLSASVGDRVTITCRASQGIRTNLAWFQQKPGKAPKSLIYAASSLQSGVPSRFSGSGSGTDFTLTISSLQPEDFATYYCQQYNSYPRTFGGGTKVEIK
3 | binds | – | binds | 26 (antibody, V domains shown, also called variant 26; 26 VH domain) VH: EVQLVQSGAEVKKPGESLKISCKGSGYRFASHWIGWVRQMPGKGLEWMGEIYPGDSDTRISPSFQGQVTISADKSISTAYLQWSSLKASDTAMYYCARKDYYYYAMDVWGQGTTVTVSS VL: DIQMTQSPSSLSASVGDRVTITCRASQGIRTNLAWFQQKPGKAPKSLIYAASSLQSGVPSRFSGSGSGTDFTLTISSLQPEDFATYYCQQYNSYPRTFGGGTKVEIK
4 | – | – | binds | 23 (antibody, V domains shown, also called variant 23; 23 VH domain) VH: EVQLVQSGAEVKKPGESLKISCKGSGYRFGSYWIGWVRQMPGKGLEWMGEIYPGDSKTRYSPSFQGQVTISADKSISTAYLQWSSLKASDTAMYYCARKDYYYYAMDVWGQGTTVTVSS VL: DIQMTQSPSSLSASVGDRVTITCRASQGIRTNLAWFQQKPGKAPKSLIYAASSLQSGVPSRFSGSGSGTDFTLTISSLQPEDFATYYCQQYNSYPRTFGGGTKVEIK
5 | binds | – | binds | 14 (antibody, V domains shown, also called variant 14; 14 VH domain) VH: EVQLVQSGAEVKKPGESLKISCKGSGYRFTSYWIGWVRQMPGKGLEWMGIIYPGDSDTRYSPSFQGQVTISADKSISTAYLQWSSLKASDTAMYYCARKDYYYGALDVWGQGTTVTVSS VL: DIQMTQSPSSLSASVGDRVTITCRASQGIRTNLAWFQQKPGKAPKSLIYAASSLQSGVPSRFSGSGSGTDFTLTISSLQPEDFATYYCQQYNSYPRTFGGGTKVEIK
6 | binds | – | binds | 18 (antibody, V domains shown, also called variant 18; 18 VH domain) VH: EVQLVQSGAEVKKPGESLKISCKGSGYRFTSYWIGWVRQMPGKGLEWMGIIYPGDSDTRYSPSFQGQVTISADKSISTAYLQWSSLKASDTAMYYCARKDYYYDAMDYWGQGTTVTVSS VL: DIQMTQSPSSLSASVGDRVTITCRASQGIRTNLAWFQQKPGKAPKSLIYAASSLQSGVPSRFSGSGSGTDFTLTISSLQPEDFATYYCQQYNSYPRTFGGGTKVEIK
